This note sets out measurements from US6770444.

The target in this experiment is human Ob-Rb (human) (UniProt P48357). The experiment in a line: SPA displacement of [125I] leptin, Cos-7 cells transfected with human Ob-Rb. For orientation: Loss of bound radioactivity is the signal in a displacement assay; it reports binding, not function.
UniProt P48357, sequence (P48357 22-1165): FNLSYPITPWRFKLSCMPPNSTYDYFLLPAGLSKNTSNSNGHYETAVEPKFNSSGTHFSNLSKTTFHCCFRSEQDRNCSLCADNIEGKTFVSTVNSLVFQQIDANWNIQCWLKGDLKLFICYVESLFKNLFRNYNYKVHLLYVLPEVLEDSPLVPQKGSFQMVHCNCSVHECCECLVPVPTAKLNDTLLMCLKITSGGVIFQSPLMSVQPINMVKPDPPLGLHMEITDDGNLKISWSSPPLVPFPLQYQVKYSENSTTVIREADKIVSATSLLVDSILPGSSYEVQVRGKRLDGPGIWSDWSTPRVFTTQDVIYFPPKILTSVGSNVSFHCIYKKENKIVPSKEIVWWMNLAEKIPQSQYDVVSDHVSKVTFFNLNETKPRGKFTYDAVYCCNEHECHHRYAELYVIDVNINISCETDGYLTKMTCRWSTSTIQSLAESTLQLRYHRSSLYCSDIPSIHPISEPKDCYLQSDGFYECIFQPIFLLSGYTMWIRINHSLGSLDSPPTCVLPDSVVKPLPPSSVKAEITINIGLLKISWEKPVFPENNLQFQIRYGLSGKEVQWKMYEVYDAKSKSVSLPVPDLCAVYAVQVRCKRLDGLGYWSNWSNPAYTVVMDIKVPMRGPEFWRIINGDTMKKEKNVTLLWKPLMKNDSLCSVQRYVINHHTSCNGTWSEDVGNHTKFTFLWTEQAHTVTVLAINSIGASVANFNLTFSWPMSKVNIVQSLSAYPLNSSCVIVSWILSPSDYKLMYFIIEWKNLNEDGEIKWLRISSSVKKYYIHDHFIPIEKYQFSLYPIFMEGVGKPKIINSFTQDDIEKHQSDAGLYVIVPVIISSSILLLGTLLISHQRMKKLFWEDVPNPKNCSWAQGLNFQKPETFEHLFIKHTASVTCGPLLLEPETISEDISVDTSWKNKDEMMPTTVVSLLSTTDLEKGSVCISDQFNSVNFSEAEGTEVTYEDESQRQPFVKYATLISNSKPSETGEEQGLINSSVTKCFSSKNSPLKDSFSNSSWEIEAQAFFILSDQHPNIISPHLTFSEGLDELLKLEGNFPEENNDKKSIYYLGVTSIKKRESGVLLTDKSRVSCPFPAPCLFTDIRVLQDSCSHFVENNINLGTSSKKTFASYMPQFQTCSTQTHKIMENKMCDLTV

Take leptin (unlabeled) (ligand): the IC50 (commonly the concentration needed to halve the response being measured) was in the range of 0.01 to 0.015 µM.
